From patent publication US20080166352A1 (Amgen, published 2008)
Where a chain is given by its changes, count along the chain named. Each block holds one binder with its values, some of them ahead of it.

Tests used:
[1] = target: T1, soluble recombinant human B7RP-1 (human, UniProt O75144 19-256, limits assumed); test: KinExA, dual-curve fit at [Ab] 100 pM and 300 pM, hB7RP-1 titrated in solution
T1 construct: also called hB7RP-1; soluble B7RP-1
T1 sequence (looked up): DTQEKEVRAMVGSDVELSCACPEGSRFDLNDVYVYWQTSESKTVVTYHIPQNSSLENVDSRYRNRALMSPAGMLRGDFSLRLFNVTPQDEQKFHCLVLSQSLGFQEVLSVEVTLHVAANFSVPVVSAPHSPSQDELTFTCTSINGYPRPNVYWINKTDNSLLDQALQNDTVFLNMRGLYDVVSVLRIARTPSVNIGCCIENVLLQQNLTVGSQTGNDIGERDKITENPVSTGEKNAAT
Experimental: (§1) Binding of 5D, 2H, and 2H germline antibodies was also tested using KinExA (kinetic exclusion assay) technology. In this assay, hB7RP-1 was coupled to agarose beads. The beads were used to create a bead column. Samples containing antibody at a fixed concentration, which were allowed to come to equilibrium with varying concentrations of hB7RP-1, were then passed over the bead column. Antibody not complexed with ligand bound to the coated beads.
(§2) A fluorescent tagged anti-human Fc secondary antibody was used to detect bound test antibody.

[2] = target: T1, soluble recombinant human B7RP-1; test: Biacore solution equilibrium: mAb pre-incubated with soluble B7RP-1, free mAb read on immobilized B7RP1-Fc
Experimental: (§3) A fixed concentration of mAb was then incubated with varying concentrations of B7RP-1 or B7RP1-Fc for at least eight hours at room temperature to allow them to reach equilibrium. The samples were then injected over the B7RP1-Fc surface, and the binding signal observed represented free antibody remaining in solution at equilibrium.

[3] = target: T2, human B7RP-1 Ig2 (IgC-like) domain fused to chicken avidin (human; chicken, UniProt O75144 120-246); test: avidin fusion on biotin-coated beads, fluorescently labeled 5D, flow cytometry
T2 construct: Order of the parts not certain ('N-terminal, in-frame fusions with chicken avidin'); also called Ig2 domain; membrane-proximal Ig2 domain; not shown: chicken avidin
T2 sequence: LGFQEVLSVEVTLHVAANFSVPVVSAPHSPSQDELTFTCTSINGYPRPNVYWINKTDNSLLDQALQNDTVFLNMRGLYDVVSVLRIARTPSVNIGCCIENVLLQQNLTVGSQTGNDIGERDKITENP
Experimental: (§4) Experiments were conducted to identify the region on B7RP-1 to which the 16H/16Hg and 5D monoclonal antibodies bind. To do this a novel Fluorescence-Activated Cell Sorter (FACS) binding assay was developed. The human extracellular domain (ECD) of B7RP1 (SEQ ID NO: 66) as well as truncated forms of B7RP-1 containing either the Ig1 (IgV-like; SEQ ID NO: 67) or the Ig2 (IgC-like; SEQ ID NO: 68) were expressed as N-terminal, in-frame fusions with chicken avidin.
(§5) Expression vectors containing genes encoding these fusion proteins were individually transiently transfected into 293T cells and the conditioned media from these cell lines were used as the source of fusion protein. The avidin-tag was used to capture the B7R-1 fusion proteins from solution using a biotin-coated bead. Fusion proteins were incubated with either fluorescently-labeled 16H or 5D mAbs or a fluorescently-labeled ICOS-Fc fusion protein, and incubated with biotin-coated beads The beads were recovered and analyzed using flow cytometry on a Becton-Dickinson Bioscience FACScan (BD, Franklin Lakes, N.J.). […] Thus, the ICOS, 16H, and 5D binding regions on B7RP-1 were located in the Ig1 domain

[4] = target: T1, soluble recombinant human B7RP-1; test: Biacore mono column of Table 4 (same value as Table 3)
Experimental: as §3

[5] = target: T3, human B7RP1-Fc fusion protein (human, UniProt O75144 19-256, limits assumed); test: Biacore solution equilibrium: mAb pre-incubated with B7RP1-Fc, free mAb read on immobilized B7RP1-Fc
T3 construct: also called hB7RP-1-Fc; hB7RP1Fc; not shown: Fc part
T3 sequence (looked up): T1 sequence (looked up)
Experimental: as §3

[6] = target: T4, full-length human B7RP-1 on cells (human, UniProt O75144 19-302); test: cell-based or functional assay
T4 sequence (looked up): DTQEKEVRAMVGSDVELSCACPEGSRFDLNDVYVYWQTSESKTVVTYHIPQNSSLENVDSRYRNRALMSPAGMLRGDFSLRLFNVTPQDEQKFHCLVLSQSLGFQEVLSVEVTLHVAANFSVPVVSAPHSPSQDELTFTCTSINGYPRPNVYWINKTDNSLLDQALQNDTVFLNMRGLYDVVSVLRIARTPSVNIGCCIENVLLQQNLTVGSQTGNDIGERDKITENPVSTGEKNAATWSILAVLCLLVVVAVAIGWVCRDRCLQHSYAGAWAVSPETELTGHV

[7] = target: T3, human B7RP1-Fc fusion protein; test: cell-based or functional assay
[8] = target: T3, human B7RP1-Fc fusion protein; test: Biacore Fc column of Table 4 (same value as Table 3)
Experimental: as §3

[9] = target: T2, human B7RP-1 Ig2 (IgC-like) domain …; test: avidin fusion on biotin-coated beads, fluorescently labeled ICOS-Fc, flow cytometry
Experimental: as §4, §5

[10] = target: T3, human B7RP1-Fc fusion protein; test: Biacore Fc column of Table 4
[11] = target: T2, human B7RP-1 Ig2 (IgC-like) domain …; test: avidin fusion on biotin-coated beads, fluorescently labeled 16H, flow cytometry
Experimental: as §5

[12] = target: T2, human B7RP-1 Ig2 (IgC-like) domain …; test: flow cytometry of biotin-coated beads capturing the avidin fusion protein, stained with fluorescently labelled antibody
[13] = target: T1, soluble recombinant human B7RP-1; test: KinExA, hB7RP-1 on agarose beads, antibody equilibrated with hB7RP-1 in solution
Experimental: as §1, §2

B1: anti-B7RP1 human monoclonal antibody 5D (antibody, V domains shown)
VH: QVQLVESGGGVVQPGRSLRLSCAASGFTFSSYGMHWVRQAPGKGLEWVAVIWYDGSKKYYADSVEGRFTISRDNSKNTLYLQMNSLRAEDTAVFYCARDLNIMVWGIFDYWGQGTLVTVSS
VL: EIVLTQSPATLSLSPGERATLSCRASQSVSSYLAWYQQKPGQAPRLLIYDASNRATGIPARFSGSGSGTDFTLTISSLEPEDFAVYYCQQRNNWPWTFGQGTKVEIK
notes: Fluorescently labelled in the flow cytometry assays; also called 5D mAb; B7RP-1 5D
- Kd [1]: 0.018 nM
- Kd [2]: 0.037 nM
- binding result [3]: no binding
- Kd [4]: 0.037 nM
- Kd [5]: 0.0016 nM
- CHO (co-stimulation assay with hB7RP1 transfected CHO cells, T cell proliferation) EC50 [6]: 1460 pM
- Plate (co-stimulation assay, T cell proliferation) EC50 [7]: 55 pM
- Kd [8]: 0.0016 nM

B3: anti-B7RP1 human monoclonal antibody 16H (antibody, V domains shown)
VH: EVQLVESGGGLVQPGGSLRLSCAGSGFTFSSYWMSWVRQAPGKGLEWVAYIKQDGNEKYYVDSVKGRFTISRDNAKKSLYLQMNSLRAEDTAVYYCAREGILWFGDLPTFWGQGILVTVSS
VL: DIQMTQSPSSLSASVGDRVTITCRASQGISNWLAWYQQKPEKAPKSLIYAASSLQSGVPSRFSGSGSGTDFTLTISSLQPEDFATYYCQQYDSYPRTFGQGTKVEIK
notes: Fluorescently labelled in the flow cytometry assays; also called 16H mAb; B7RP-1 16H
- Kd [2]: 1.9 nM
- Kd [4]: 1.9 nM
- binding result [11]: no binding
- Kd [5]: 0.027 nM
- CHO (co-stimulation assay with hB7RP1 transfected CHO cells, T cell proliferation) EC50 [6]: 276 pM
- Plate (co-stimulation assay, T cell proliferation) EC50 [7]: 53 pM
- Kd [8]: 0.027 nM

B5: anti-B7RP1 human monoclonal antibody 2H germline (antibody, V domains shown)
VH: B3 VH with G24A, N56S, K77N, E99D, L107I, F110Y, I115T
VL: B3 VL with A50T, D92N
- Kd [1]: 0.4 nM

B8: anti-B7RP1 human monoclonal antibody 2H (antibody, V domains shown)
VH: B3 VH with A23V, N56S, K77N, E99D, L107I, F110Y
VL: B3 VL with A50T, D92N
- Kd [1]: 0.33 nM
- binding result [12]: no binding
- Kd [10]: 0.089 nM
- CHO (co-stimulation assay with hB7RP1 transfected CHO cells, T cell proliferation) EC50 [6]: 1440 pM
- Plate (co-stimulation assay, T cell proliferation) EC50 [7]: 43 pM
- fold difference in KD against 5D [13]: ~10 fold

Other lines, results leading:

- binding result [9]: no binding
- Kd [10]: 1 nM
- CHO (co-stimulation assay with hB7RP1 transfected CHO cells, T cell proliferation) EC50 [6]: 10700 pM
B2: ICOS-Fc fusion protein (Fc fusion, UniProt Q9Y6W8 21-140, looked up)
chain: EINGSANYEMFIFHNGGVQILCKYPDIVQQFKMQLLKGGQILCDLTKTKGSGNTVSIKSLKFCHSQLSNNSVSFFLYNLDHSHANYYFCNLSIFDPPPFKVTLTGGYLHIYESQLCCQLK
notes: Fluorescently labelled in the flow cytometry assays; also called ICOS reagent; not shown: Fc part

- Plate (co-stimulation assay, T cell proliferation) EC50 [7]: 46 pM
B4: anti-B7RP1 human monoclonal antibody 43H (antibody, V domains shown)
VH: EVQLVQSGGGLVHPGGSLRLSCAGSGFTFSSYAMHWVRQAPGKGLEWVSAIGAGGGTYYADSVKGRFTISRDNAKNSLYLQMNSLRAEDMAVYYCARVVVVVGFFDYWGQGTLVTVSS
VL: B3 VL with N31S, Y49F, D92N, R96Y, V104L

- Plate (co-stimulation assay, T cell proliferation) EC50 [7]: 52 pM
B6: anti-B7RP1 human monoclonal antibody 41H (antibody, V domains shown)
VH: B3 VH with G24A, N56S, K77N, E99D, F110Y, I115T
VL: B3 VL with N31S, D92N, S93T

- Kd [2]: 2.7 nM
- Kd [4]: 2.7 nM
- Kd [5]: 0.017 nM
- CHO (co-stimulation assay with hB7RP1 transfected CHO cells, T cell proliferation) EC50 [6]: 523 pM
- Plate (co-stimulation assay, T cell proliferation) EC50 [7]: 32 pM
- Kd [8]: 0.017 nM
B7: anti-B7RP1 human monoclonal antibody 16H germline (antibody, V domains shown)
VH: B3 VH with G24A, K77N, I115T
VL: B3 VL

- Plate (co-stimulation assay, T cell proliferation) EC50 [7]: 36 pM
B9: anti-B7RP1 human monoclonal antibody 15H (antibody, V domains shown)
VH: EVQLVQSGGGLVHPGGSLRLSCAGSGFTFSSYAMHWVRQAPGKGLEWVSAIGTGGGTYYADSVKGRFTISRDNAKNSLYLQMNSLRAEDMAMYYCAKSGVPLLWFGEFYWGQGTLVTVSS
VL: not shown
